# Data from patent US20240424062A1 (MEDERIS DIABETES, published 2024).
# B1: EU-A391 (peptide)
# peptide: HXQGTXTSDYSKYLDXX
# modifications: not fully specified; 1-dodecyl alkyl glycoside surfactant on a linker residue (position not given)
# B2: EU-A992 (peptide)
# peptide: HXQGTFTSDYSKYLDXQAAXEFIXWLLQT
# modifications: not fully specified; Aib at 2; Glu*16 and Lys*20 cyclized through their side chains to a lactam; Lys(N-omega(1-octyl beta-D-glucuronyl)) at 24; C-terminal amide (NH2)
# Key:
# Experiment in all cases: cell-based or functional assay
# [1] = target: T1, GLP-1 receptor (murine cell line) (murine, UniProt O35659 22-463)
# T1 sequence (looked up): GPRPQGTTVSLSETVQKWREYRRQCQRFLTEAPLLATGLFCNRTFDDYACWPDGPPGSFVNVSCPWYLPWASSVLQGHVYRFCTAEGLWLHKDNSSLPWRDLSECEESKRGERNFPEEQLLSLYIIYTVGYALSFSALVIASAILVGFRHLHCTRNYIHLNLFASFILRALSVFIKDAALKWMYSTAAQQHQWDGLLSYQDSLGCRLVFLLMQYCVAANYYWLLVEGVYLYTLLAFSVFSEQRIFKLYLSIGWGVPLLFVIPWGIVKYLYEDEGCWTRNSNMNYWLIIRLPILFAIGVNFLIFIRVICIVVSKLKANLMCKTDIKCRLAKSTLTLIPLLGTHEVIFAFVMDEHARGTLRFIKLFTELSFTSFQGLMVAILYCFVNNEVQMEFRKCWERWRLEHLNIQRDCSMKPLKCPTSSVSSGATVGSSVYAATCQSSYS
# [2] = target: glucagon receptor (human, cloned into CHO cells) (human, UniProt P47871 26-477)
# glucagon receptor (human, cloned into CHO cells), sequence (P47871 26-477): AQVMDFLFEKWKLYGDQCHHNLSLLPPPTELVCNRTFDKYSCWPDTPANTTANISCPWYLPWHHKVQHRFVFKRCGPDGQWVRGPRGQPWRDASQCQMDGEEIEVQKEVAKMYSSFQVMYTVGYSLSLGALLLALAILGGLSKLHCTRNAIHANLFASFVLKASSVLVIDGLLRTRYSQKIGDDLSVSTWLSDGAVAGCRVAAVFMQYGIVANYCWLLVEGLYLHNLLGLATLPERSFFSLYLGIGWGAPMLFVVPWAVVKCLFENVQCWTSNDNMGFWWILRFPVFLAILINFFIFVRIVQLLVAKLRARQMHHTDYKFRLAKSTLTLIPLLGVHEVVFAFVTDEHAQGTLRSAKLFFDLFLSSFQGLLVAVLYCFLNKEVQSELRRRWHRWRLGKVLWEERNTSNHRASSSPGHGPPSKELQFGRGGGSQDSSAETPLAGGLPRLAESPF
# [3] = target: GLP-1 receptor (human, cloned into CHO cells) (human, UniProt P43220 24-463)
binder,measurement,setting,value
B1,"EC50, cAMP stimulation in cells (Cerep)",[1],420 nM
B2,EC50 cAMP (DiscoveRx),[2],0.019 nM
same,EC50 cAMP (DiscoveRx),[3],0.009 nM
